Measured values as given in PMC3462610 (Biochemical Journal, 2011).
One block for each molecule: values may come before it. Where no end group is shown, it is not given here.

Columns and labels:
activated His–JNK2–FLAG = activated His–JNK2–FLAG (Homo sapiens, UniProt P45984); experiment: biochemical
EGFP–JNK1 = experiment: Immunofluorescence, recruitment of EGFP–JNK1 to cellular granules in HeLa cells; type: cell-based, human; conditions: 24 h after transfection, confocal microscopy
endogenous JNK2 = experiment: Co-immunoprecipitation of endogenous WDR62 with JNK2, HEK-293T; type: binding, human; conditions: anti-WDR62 3G8
Endogenous MKK7 = experiment: Co-immunoprecipitation of endogenous WDR62 with MKK7, HEK-293T; type: binding, human; conditions: anti-WDR62 3G8
JNK1 = experiment: Co-immunoprecipitation of endogenous WDR62 with JNK1, HEK-293T; type: binding, human; conditions: authors attribute it to lower JNK1 expression level
JNK3 = experiment: GST pull-down with WDR62 1018-C–GST constructs; type: binding, human; conditions: HEK-293T
HA–JNK1 = experiment: GST pull-down with WDR62 1018-C–GST constructs; type: binding, human; conditions: HEK-293T
HA–JNK2 [1] = experiment: GST pull-down with WDR62 1018-C–GST constructs; type: binding, human; conditions: HEK-293T
WDR62 = experiment: GST pull-down of MKK4 with WDR62 fragments; type: binding, human; conditions: HEK-293T, compared with MKK7–WDR62
MKK7α and MKK7β = conditions: cited from earlier work
HA–JNK2 [2] = experiment: Co-immunoprecipitation of HA–JNK2 with Myc-tagged WDR62 constructs, HEK-293T; type: binding, human; conditions: quantified, means±S.D., three independent experiments
His–MKK7β1 = experiment: In vitro protein-binding assay; design: species or system human; conditions: purified proteins, 2 h at 37°C, amylose resin
His–JNK2 = experiment: In vitro protein-binding assay; design: species or system human; conditions: purified proteins, 2 h at 37°C, amylose resin

Chain of activated His–JNK2–FLAG (P45984 whole entry): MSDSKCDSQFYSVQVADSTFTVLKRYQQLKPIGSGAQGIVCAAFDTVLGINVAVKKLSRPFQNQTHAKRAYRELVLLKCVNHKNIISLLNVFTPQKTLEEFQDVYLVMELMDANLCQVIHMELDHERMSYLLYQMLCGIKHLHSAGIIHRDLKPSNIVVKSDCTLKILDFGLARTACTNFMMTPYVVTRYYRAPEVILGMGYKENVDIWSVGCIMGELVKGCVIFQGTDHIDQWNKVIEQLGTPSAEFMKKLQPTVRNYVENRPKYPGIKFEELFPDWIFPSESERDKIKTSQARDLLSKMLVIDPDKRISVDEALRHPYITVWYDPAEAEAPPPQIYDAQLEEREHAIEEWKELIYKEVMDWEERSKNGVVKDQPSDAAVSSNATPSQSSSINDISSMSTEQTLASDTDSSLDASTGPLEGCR

Molecule: GRKKRRQRRRPPNHEARANLRLTLSSACDGLL [WDR62 peptide]
IC50 (activated His–JNK2–FLAG): 5 µM

Molecule: WDR62: full-length WDR62 (endogenous, or Myc-tagged wild-type); JNK scaffold protein
recruitment of EGFP–JNK1 to cellular granules (EGFP–JNK1): efficiently recruited to these granules
co-precipitation of endogenous JNK2 (endogenous JNK2): presence of endogenous JNK2
co-precipitation of endogenous MKK7 (Endogenous MKK7): also detected
interaction with JNK1 (JNK1): lack of interaction
association with JNK3 (JNK3): strongest association with the neuronal-enriched JNK3 isoform

B1: 1018-CΔD–GST: WDR62-1018-C lacking the D domain fused to GST (protein)
chain: RFATSLPHFPGCAGPTEDELSLPEGPSVPSSSLPQTPEQEKFLRHHFETLTESPCRELFPAALGDVEASEAEDHFFNPRLSISTQFLSSLQKASRFTHTFPPRATQCLVKSPEVKLMDRGGSQPRAGTGYASPDRTHVLAAGKAEETLEAWRPPPPCLTSLASCVPASSVLPTDRNLPTPTSAPTPGLAQGVHAPSTCSYMEATASSRARISRSISLGDSEGPIVATLAQPLRRPSSVGELASLGQELQAITTATTPSLDSEGQEPALRSWGNHEASSACDGLLQPPVDTQPGVTVPAVSFPAPSPVEESALRLHGSAFRPSLPAPESPGLPAHPSNPQLPEARPGIPGGTASLLEPTSGALGLLQGSPARWSEPWVPVEALPPSPLELSRVGNILHRLQTTFQEALDLYRVLVSSGQVDTGQQQARTELVSTFLWIHSQLEAECLVGTSVAPAQALPSPGPPSPPTLYPLASPDLQALLEHYSELLVQAVRRKARGH
association with HA–JNK1 (HA–JNK1; anti-HA/anti-pJNK): relatively weak interaction
pJNK1 in precipitate (HA–JNK1; anti-pJNK): no pJNK1/2 was detected
association with HA–JNK2 (HA–JNK2 [1]; anti-HA/anti-pJNK): relatively weak interaction
pJNK2 in precipitate (HA–JNK2 [1]; anti-pJNK): no pJNK1/2 was detected

B2: MKK4: HA-tagged human MKK4 (protein)
chain: MAAPSPSGGGGSGGGSGSGTPGPVGSPAPGHPAVSSMQGKRKALKLNFANPPFKSTARFTLNPNPTGVQNPHIERLRTHSIESSGKLKISPEQHWDFTAEDLKDLGEIGRGAYGSVNKMVHKPSGQIMAVKRIRSTVDEKEQKQLLMDLDVVMRSSDCPYIVQFYGALFREGDCWICMELMSTSFDKFYKYVYSVLDDVIPEEILGKITLATVKALNHLKENLKIIHRDIKPSNILLDRSGNIKLCDFGISGQLVDSIAKTRDAGCRPYMAPERIDPSASRQGYDVRSDVWSLGITLYELATGRFPYPKWNSVFDQLTQVVKGDPPQLSNSEEREFSPSFINFVNLCLTKDESKRPKYKELLKHPFILMYEERAVEVACYVCKILDQMPATPSSPMYVD
MKK4–WDR62 interaction (WDR62): weaker than the MKK7–WDR62 interaction

B3: JIP1 scaffold protein: JIP1 (JNK-interacting protein 1) scaffold protein (protein, UniProt Q9UQF2 1-711, looked up)
C-Jun-amino-terminal …: MAERESGGLGGGAASPPAASPFLGLHIASPPNFRLTHDISLEEFEDEDLSEITDECGISLQCKDTLSLRPPRAGLLSAGGGGAGSRLQAEMLQMDLIDATGDTPGAEDDEEDDDEERAARRPGAGPPKAESGQEPASRGQGQSQGQSQGPGSGDTYRPKRPTTLNLFPQVPRSQDTLNNNSLGKKHSWQDRVSRSSSPLKTGEQTPPHEHICLSDELPPQSGPAPTTDRGTSTDSPCRRSTATQMAPPGGPPAAPPGGRGHSHRDRIHYQADVRLEATEEIYLTPVQRPPDAAEPTSAFLPPTESRMSVSSDPDPAAYPSTAGRPHPSISEEEEGFDCLSSPERAEPPGGGWRGSLGEPPPPPRASLSSDTSALSYDSVKYTLVVDEHAQLELVSLRPCFGDYSDESDSATVYDNCASVSSPYESAIGEEYEEAPRPQPPACLSEDSTPDEPDVHFSKKFLNVFMSGRSRSSSAESFGLFSCIINGEEQEQTHRAIFRFVPRHEDELELEVDDPLLVELQAEDYWYEAYNMRTGARGVFPAYYAIEVTKEPEHMAALAKNSDWVDQFRVKFLGSVQVPYHKGNDVLCAAMQKIATTRRLTVHFNPPSSCVLEISVRGVKIGVKADDSQEAKGNKCSHFFQLKNISFCGYHPKNNKYFGFITKHPADHRFACHVFVSEDSTKALAESVGRAFQQFYKQFVEYTCPTEDIYLE
interaction with MKK7α and MKK7β (MKK7α and MKK7β): interacts with both MKK7α and MKK7β

B4: Myc-N-1284: Myc-tagged WDR62 aa 1–1284 (protein)
chain: MAAVGSGGYARNDAGEKLPSVMAGVPARRGQSSPPPAPPICLRRRTRLSTASEETVQNRVSLEKVLGITAQNSSGLTCDPGTGHVAYLAGCVVVILDPKENKQQHIFNTARKSLSALAFSPDGKYIVTGENGHRPAVRIWDVEEKNQVAEMLGHKYGVACVAFSPNMKHIVSMGYQHDMVLNVWDWKKDIVVASNKVSCRVIALSFSEDSSYFVTVGNRHVRFWFLEVSTETKVTSTVPLVGRSGILGELHNNIFCGVACGRGRMAGSTFCVSYSGLLCQFNEKRVLEKWINLKVSLSSCLCVSQELIFCGCTDGIVRIFQAHSLHYLANLPKPHYLGVDVAQGLEPSFLFHRKAEAVYPDTVALTFDPIHQWLSCVYKDHSIYIWDVKDINRVGKVWSELFHSSYVWNVEVYPEFEDQRACLPSGSFLTCSSDNTIRFWNLDSSPDSHWQKNIFSNTLLKVVYVENDIQHLQDMSHFPDRGSENGTPMDVKAGVRVMQVSPDGQHLASGDRSGNLRIHELHFMDELVKVEAHDAEVLCLEYSKPETGLTLLASASRDRLIHVLNVEKNYNLEQTLDDHSSSITAIKFAGNRDIQMISCGADKSIYFRSAQQGSDGLHFVRTHHVAEKTTLYDMDIDITQKYVAVACQDRNVRVYNTVNGKQKKCYKGSQGDEGSLLKVHVDPSGTFLATSCSDKSISVIDFYSGECIAKMFGHSEIITSMKFTYDCHHLITVSGDSCVFIWHLGPEITNCMKQHLLEIDHRQQQQHTNDKKRSGHPRQDTYVSTPSEIHSLSPGEQTEDDLEEECEPEEMLKTPSKDSLDPDPRCLLTNGKLPLWAKRLLGDDDVADGLAFHAKRSYQPHGRWAERAGQEPLKTILDAQDLDCYFTPMKPESLENSILDSLEPQSLASLLSESESPQEAGRGHPSFLPQQKESSEASELILYSLEAEVTVTGTDSQYCRKEVEAGPGDQQGDSYLRVSSDSPKDQSPPEDSGESEADLECSFAAIHSPAPPPDPAPRFATSLPHFPGCAGPTEDELSLPEGPSVPSSSLPQTPEQEKFLRHHFETLTESPCRELFPAALGDVEASEAEDHFFNPRLSISTQFLSSLQKASRFTHTFPPRATQCLVKSPEVKLMDRGGSQPRAGTGYASPDRTHVLAAGKAEETLEAWRPPPPCLTSLASCVPASSVLPTDRNLPTPTSAPTPGLAQGVHAPSTCSYMEATASSRARISRSISLGDSEGPIVATLAQPLRRPSSVGELASLGQELQAITTATTPSLDSEGQEPA
reduction of precipitated JNK2 as compared with CS2 and CS5 full-length proteins (HA–JNK2 [2]): 7 -fold

precipitation of His–MKK7β1 (His–MKK7β1): efficiently precipitated
precipitation of His–JNK2 (His–JNK2): efficiently precipitated His–JNK2
B5: MBP-1018-C: MBP fused to human WDR62 1018-C fragment (protein)
chain: RFATSLPHFPGCAGPTEDELSLPEGPSVPSSSLPQTPEQEKFLRHHFETLTESPCRELFPAALGDVEASEAEDHFFNPRLSISTQFLSSLQKASRFTHTFPPRATQCLVKSPEVKLMDRGGSQPRAGTGYASPDRTHVLAAGKAEETLEAWRPPPPCLTSLASCVPASSVLPTDRNLPTPTSAPTPGLAQGVHAPSTCSYMEATASSRARISRSISLGDSEGPIVATLAQPLRRPSSVGELASLGQELQAITTATTPSLDSEGQEPALRSWGNHEARANLRLTLSSACDGLLQPPVDTQPGVTVPAVSFPAPSPVEESALRLHGSAFRPSLPAPESPGLPAHPSNPQLPEARPGIPGGTASLLEPTSGALGLLQGSPARWSEPWVPVEALPPSPLELSRVGNILHRLQTTFQEALDLYRVLVSSGQVDTGQQQARTELVSTFLWIHSQLEAECLVGTSVAPAQALPSPGPPSPPTLYPLASPDLQALLEHYSELLVQAVRRKARGH
